Assay results taken from patent publication US20100184658A1 (published 2010).

Tests used:
Test in all cases: cell-based or functional assay
[1] = target: MAPK14 (p38 alpha) Mitogen-activated protein kinase 14 (UniProt Q16539 1-360)
[2] = target: T1, MAP4K2 (GCK) Mitogen-activated protein kinase kinase kinase kinase 2 (UniProt Q12851 1-820, limits assumed)
T1 sequence (looked up): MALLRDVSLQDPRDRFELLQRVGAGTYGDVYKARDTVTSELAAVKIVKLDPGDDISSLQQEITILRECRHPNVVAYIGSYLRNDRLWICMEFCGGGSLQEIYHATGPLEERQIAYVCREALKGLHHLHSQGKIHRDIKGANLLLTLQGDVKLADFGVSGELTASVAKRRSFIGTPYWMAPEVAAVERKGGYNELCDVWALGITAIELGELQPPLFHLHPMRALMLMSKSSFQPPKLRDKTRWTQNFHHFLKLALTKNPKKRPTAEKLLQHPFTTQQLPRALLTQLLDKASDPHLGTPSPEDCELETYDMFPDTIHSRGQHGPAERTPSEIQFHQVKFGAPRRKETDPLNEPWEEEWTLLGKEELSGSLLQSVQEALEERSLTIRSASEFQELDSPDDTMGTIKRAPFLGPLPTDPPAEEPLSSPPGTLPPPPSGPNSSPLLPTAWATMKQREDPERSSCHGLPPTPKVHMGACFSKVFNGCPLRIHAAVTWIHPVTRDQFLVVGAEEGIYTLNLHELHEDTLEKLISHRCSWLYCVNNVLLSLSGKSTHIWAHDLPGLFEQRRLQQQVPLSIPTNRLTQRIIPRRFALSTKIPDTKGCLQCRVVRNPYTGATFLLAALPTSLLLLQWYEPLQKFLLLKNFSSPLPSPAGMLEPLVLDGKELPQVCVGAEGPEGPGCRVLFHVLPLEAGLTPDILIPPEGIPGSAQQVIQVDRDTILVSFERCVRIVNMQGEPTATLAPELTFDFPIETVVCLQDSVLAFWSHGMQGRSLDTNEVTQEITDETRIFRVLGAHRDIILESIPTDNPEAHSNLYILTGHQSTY

[3] = target: RPS6KA6 (RSK4) (UniProt Q9UK32 1-745, limits assumed)
Sequence of RPS6KA6 (RSK4) (Q9UK32 whole entry): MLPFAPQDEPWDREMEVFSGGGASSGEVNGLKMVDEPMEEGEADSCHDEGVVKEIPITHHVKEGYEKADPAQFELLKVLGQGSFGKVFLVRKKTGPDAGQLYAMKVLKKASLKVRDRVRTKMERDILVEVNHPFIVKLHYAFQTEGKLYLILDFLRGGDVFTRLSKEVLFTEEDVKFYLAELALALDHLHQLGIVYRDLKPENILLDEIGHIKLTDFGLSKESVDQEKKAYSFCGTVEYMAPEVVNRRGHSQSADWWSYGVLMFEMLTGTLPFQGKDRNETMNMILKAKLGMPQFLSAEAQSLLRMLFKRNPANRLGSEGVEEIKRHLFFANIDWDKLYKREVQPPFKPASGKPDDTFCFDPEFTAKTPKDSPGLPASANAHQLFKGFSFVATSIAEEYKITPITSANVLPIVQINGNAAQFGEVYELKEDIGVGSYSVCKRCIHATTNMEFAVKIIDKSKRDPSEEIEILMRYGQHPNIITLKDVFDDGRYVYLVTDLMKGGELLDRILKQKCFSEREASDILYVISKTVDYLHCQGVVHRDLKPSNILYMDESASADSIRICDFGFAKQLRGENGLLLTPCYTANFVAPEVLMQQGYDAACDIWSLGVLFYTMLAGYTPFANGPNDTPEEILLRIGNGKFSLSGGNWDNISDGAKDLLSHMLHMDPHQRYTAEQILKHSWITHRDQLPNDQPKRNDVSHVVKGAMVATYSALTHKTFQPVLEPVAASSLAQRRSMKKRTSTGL

[4] = target: T2, SGK2 Serum/glucocorticoid regulated kinase 2 (UniProt Q9HBY8 1-367, limits assumed)
T2 sequence (looked up): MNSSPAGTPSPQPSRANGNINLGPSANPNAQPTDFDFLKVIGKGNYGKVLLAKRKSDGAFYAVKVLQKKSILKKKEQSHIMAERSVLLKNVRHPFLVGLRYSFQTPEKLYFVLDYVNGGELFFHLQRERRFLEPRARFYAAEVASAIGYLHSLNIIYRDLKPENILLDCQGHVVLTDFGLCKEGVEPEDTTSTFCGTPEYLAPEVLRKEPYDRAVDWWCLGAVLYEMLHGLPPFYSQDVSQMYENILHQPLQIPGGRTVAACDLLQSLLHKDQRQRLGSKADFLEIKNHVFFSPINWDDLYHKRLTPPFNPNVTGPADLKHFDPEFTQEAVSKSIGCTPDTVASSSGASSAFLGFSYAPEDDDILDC

[5] = target: T3, BRSK1 (SAD1) (UniProt Q8TDC3 1-778, limits assumed)
T3 sequence (looked up): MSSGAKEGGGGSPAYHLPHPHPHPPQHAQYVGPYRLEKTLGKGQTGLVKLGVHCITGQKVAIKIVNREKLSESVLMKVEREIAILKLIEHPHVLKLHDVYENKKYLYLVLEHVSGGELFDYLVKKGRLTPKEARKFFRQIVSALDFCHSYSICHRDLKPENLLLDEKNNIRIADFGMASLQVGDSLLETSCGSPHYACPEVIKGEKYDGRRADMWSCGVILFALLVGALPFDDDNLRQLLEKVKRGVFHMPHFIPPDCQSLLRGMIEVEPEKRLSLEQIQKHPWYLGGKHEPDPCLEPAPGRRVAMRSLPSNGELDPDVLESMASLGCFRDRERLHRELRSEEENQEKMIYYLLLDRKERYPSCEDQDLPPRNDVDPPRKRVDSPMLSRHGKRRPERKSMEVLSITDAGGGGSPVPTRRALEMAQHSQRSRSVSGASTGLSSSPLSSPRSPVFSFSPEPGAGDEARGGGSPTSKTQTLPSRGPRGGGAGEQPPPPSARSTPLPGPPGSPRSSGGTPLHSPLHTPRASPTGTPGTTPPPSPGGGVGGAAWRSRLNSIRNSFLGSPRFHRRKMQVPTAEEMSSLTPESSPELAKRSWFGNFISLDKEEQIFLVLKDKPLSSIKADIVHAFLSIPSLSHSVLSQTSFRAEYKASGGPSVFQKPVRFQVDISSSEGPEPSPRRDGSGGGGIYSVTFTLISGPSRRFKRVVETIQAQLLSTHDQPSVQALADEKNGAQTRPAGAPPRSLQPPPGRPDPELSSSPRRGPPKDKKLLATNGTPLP

[6] = target: T4, MATK (HYL) (UniProt P42679 1-507, limits assumed)
T4 sequence (looked up): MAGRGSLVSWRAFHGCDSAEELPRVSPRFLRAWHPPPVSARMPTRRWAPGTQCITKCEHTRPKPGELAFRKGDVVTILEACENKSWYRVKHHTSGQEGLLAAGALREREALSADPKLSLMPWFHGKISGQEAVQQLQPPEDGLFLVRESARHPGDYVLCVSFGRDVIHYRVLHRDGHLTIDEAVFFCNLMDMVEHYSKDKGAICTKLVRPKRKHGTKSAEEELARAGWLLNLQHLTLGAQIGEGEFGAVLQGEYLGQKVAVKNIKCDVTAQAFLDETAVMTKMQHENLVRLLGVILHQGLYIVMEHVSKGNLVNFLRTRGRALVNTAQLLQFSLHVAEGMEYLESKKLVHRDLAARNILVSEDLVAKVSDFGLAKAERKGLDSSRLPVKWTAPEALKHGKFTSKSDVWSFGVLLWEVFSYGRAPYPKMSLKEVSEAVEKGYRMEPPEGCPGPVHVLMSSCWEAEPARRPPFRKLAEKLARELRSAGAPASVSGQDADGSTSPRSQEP

Sequence of MAPK14 (p38 alpha) Mitogen-activated protein kinase 14 (Q16539 whole entry): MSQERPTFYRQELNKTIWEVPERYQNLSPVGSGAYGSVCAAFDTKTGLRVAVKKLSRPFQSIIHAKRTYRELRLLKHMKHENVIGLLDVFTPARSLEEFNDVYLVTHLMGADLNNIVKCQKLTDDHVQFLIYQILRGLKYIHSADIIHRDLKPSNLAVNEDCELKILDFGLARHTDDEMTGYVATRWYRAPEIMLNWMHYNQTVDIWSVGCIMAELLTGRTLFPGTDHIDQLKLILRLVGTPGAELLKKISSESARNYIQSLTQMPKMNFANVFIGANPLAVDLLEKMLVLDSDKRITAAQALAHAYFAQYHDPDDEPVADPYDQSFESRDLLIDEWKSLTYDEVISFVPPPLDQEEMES

**Q.** SGRPPMIVWFNRPFLIAVSHTHGQTILFMAKVINPVGA [D3 peptide] was tested. Which “% Inhibition mean” value [1] did it give?
**A.** 83%

**Q.** What about the “% Inhibition mean” value [2] of the same binder?
**A.** 98.4%

**Q.** What about the “% Inhibition mean” value [3] of the same binder?
**A.** 87.6%

**Q.** And the “% Inhibition mean” value [4]?
**A.** 102%

**Q.** And the “% Inhibition mean” value [5]?
**A.** 83.5%

**Q.** And the “% Inhibition mean” value [6]?
**A.** 55.6%
